Assay results from publication PMC5791736, “CCPG1 Is a Non-canonical Autophagy Cargo Receptor Essential for ER-Phagy and Pancreatic ER Proteostasis” (Developmental Cell, 2018).

Target: T1, GST-CCPG1 NTD (bacterial) (1-230) (human, UniProt Q9ULG6 1-230)
T1 construct: CCPG1, human, N-terminal amino acids 1-230 (NTD); source: E. coli Rosetta II (DE3), pre-purified on glutathione Sepharose beads
T1 sequence (looked up): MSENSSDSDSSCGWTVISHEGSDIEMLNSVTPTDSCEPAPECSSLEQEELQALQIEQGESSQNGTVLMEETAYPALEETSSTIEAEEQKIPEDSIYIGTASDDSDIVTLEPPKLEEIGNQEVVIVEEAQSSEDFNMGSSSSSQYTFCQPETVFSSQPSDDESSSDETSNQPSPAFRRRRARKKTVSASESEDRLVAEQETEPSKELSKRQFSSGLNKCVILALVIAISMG
Experiment: pull-down; GST-CCPG1 NTD pre-purified on glutathione Sepharose beads, incubated with purified recombinant protein (His-GABARAP or His-FIP200) in IGEPAL IP buffer, 4°C; immunoblot
Conditions: both partners purified

B1: His-GABARAP (natural protein, human, UniProt O95166 1-117, looked up)
chain: MKFVYKEEHPFEKRRSEGEKIRKKYPDRVPVIVEKAPKARIGDLDKKKYLVPSDLTVGQFYFLIRKRIHLRAEDALFFFVNNVIPPTSATMGQLYQEHHEEDFFLYIAYSDESVYGL
notes: GABARAP, human ATG8 ortholog; also called purified, recombinant His-GABARAP; source: recombinant, purified
binding result: binds
